{
  "source": "patent US6303361",
  "about": "“Human glandular kallikrein-1 (hK2)” (Orion-Yhtyma Oyj, dated 2001)",
  "key": {"α1-antitrypsin": {"molecular_target": "α1-antitrypsin (Homo sapiens (Human), UniProt P01009)", "assay": "complex formation with serpin (method not described)"}, "α1-antichymotrypsin": {"molecular_target": "α1-antichymotrypsin (Homo sapiens (Human), UniProt P01011)", "assay": "complex formation with serpin (method not described)"}},
  "data": [
    {"binder": "recombinant Trp226-hK2 protein (Trp226-hK2 having the N-terminal dipeptide extension Ser-Arg, from insect cells) (enzyme) not shown", "values": [
      {"measurement": "binding result", "setting": "α1-antitrypsin", "result": "no binding"},
      {"measurement": "binding result", "setting": "α1-antichymotrypsin", "result": "no binding"}
    ]}
  ]
}
